The target of test [1] is mix of HLA-A*02/SimPep tetramers (peptides SEQ ID NO: 51 to 59). Nature of the test: yeast display, SimPep tetramer mix, 10 nM each.
Test [2] shares this target. Kind of test: yeast display, flow cytometry; 10 nM PRAME-004 monomer (x), SimPep tetramer mix 10 nM each (y).

The text below walks through data of patent publication US20230357428A1.

Several values for one entry are separate records, joined by “and”; a condition that tells them apart may be missing. Equal entries are not always repeated.

B1: stabilized scTCR R11P3D3SD (TCR)
chain: ILNVEQSPQSLHVQEGDSTNFTCSFPSSNFYNLHWYRKETAKSPEFLFYMTSNGDEKKKGRISATLNTKEGYSYLYITDSQPEDSATYLCALYNNNDMRFGAGTRLTVKPGGGGSGGGGSGGGGSGGGGSGGGGSGVIQSPRHLVTEMGQEVTLRCKPISGHNSLFWYRETPMQGLELLIYFNNNEPIDDSGMPEDRFSAKMPNASFSTLKIQPSEPRDSAVYFCASSPGSTDTQYFGPGTRLTVL
Turning to B1, in test [1], the yeast cells stained positive is 3.3% and 2.5%. Also, in test [2], the % cells, upper left quadrant (monomer-, SimPep tetramers+) came out at 3% and the % cells, upper right quadrant (monomer+, SimPep tetramers+) is 0.8%.
